Measured values from PMC6399351, “Cationic Intrinsically Disordered Antimicrobial Peptides (CIDAMPs) Represent a New Paradigm of Innate Defense with a Potential for Novel Anti-Infectives” (Scientific Reports, 2019).
Like-named read-outs stand apart in the source and are kept apart here. Ends that are not written are not given here.

Experiments:
[1] = tested on: S. aureus ATCC 6538; settings: CFU assay, 10 mM NaP, pH 5.5, 0.25% glucose
[2] = tested on: Burkholderia cepacia ATCC 25416; settings: CFU assay, 10 mM NaP, pH 5.5, 0.25% glucose
[3] = tested on: Acinetobacter baumannii ATCC 19606; experiment: CO-ADD MIC, broth microdilution (CLSI); type: cell-based; settings: Mueller–Hinton broth, 5 × 10^5 CFU/mL, 18 h 37 °C, by CO-ADD
Description: (§1) They were defined as the lowest peptide
(§2) Further details of the screening

[4] = tested on: Pseudomonas aeruginosa ATCC 27853; experiment: CO-ADD MIC, broth microdilution (CLSI); type: cell-based; settings: Mueller–Hinton broth, 5 × 10^5 CFU/mL, 18 h 37 °C, by CO-ADD
Description: as §1, §2

[5] = tested on: Klebsiella pneumonia ATCC 700603; settings: MDR strain; CLSI, Mueller–Hinton broth, 5 × 10^5 CFU/mL, 18 h 37 °C, by CO-ADD
[6] = tested on: Staphylococcus aureus ATCC 43300; settings: MRSA; CLSI, Mueller–Hinton broth, 5 × 10^5 CFU/mL, 18 h 37 °C, by CO-ADD
[7] = tested on: E. coli ATCC 11775; experiment: CFU assay of antimicrobial activity; type: cell-based, Escherichia coli; settings: 10 mM NaP
Procedure: (§3) All purified peptides and recombinant proteins were applied using a colony forming unit (CFU) assay in different media. Bacteria were grown to early log-phase in BHI, washed either with 10 mM Na-P, pH 7.4/1% TSB or pH 5.5/1% TSB, or pH 5.5 without TSB or BHI, and adjusted to a concentration of 10^4–10^5 colony forming units (CFU)/ml. For cell number control, 100 µl aliquots were diluted 1:10, 1:100 and 1:1000 and plated in duplicates on BHI agar plates. To 100 µl aliquots of the bacteria, suspended in the respective medium (10 mM Na-P buffer pH 7,0–7,4/ 1% (w/v) TSB; 10 mM Na-P buffer pH 5,5/ 1% (w/v) TSB; 10 mM Na-P buffer pH 7,0–7,4/ 1% (w/v) TSB pH 7,0–7,4/ 0,25% (w/v) glucose; 10 mM Na-P buffer pH 5,5/ 0,25% (w/v) glucose, respectively), 10 µl of a solution of the peptide or protein (two-fold dilutions, from 300 µg/ml or 150 µg/ml down to 19 ng/ml), dissolved in 0.01% (v/v) acetic acid, were added.
(§4) Then bacteria were incubated for 2 h at ambient temperature, if not otherwise stated. 10 µl of 0.01% (v/v) acetic acid, added to 100 µl aliquots of the bacteria in the respective medium, served as negative control. From each test, 1:10 and 1:100 dilutions were generated and plated as duplicates of 100 µl aliquots on BHI agar plates. After 16 h incubation at 37 °C, CFU were counted using a colony counter (Bio Kobe, Japan) and expressed as mean of the duplicate estimation to achieve a complete dose-response curve. All experiments were performed at serial dilutions in a concentration range of 100 µg/mL −25 ng/mL for recombinant HRNR fragments and 300 or 150 µg/mL–19 ng/mL for synthetic peptides.

[8] = tested on: Candida albicans ATCC 90028; experiment: CO-ADD MIC, antifungal assay (CLSI); type: cell-based; settings: Yeast Nitrogen Base broth, 24 h 35 °C, by CO-ADD
Procedure: (§5) Fungi strains were cultured for 3 days on Yeast Extract-Peptone Dextrose (YPD) agar at 30 °C. A yeast suspension of 1 × 10^6 to 5 × 10^6 cells/mL (as determined by OD530) was prepared from five colonies. These stock suspensions were diluted with Yeast Nitrogen Base (YNB) broth to a final concentration of 2.5 × 10^3 CFU/mL. […] Plates were covered and incubated at 35 °C for 24 h without shaking.

[9] = tested on: Cryptococcus neoformans ATCC 208821; experiment: CO-ADD MIC, antifungal assay (CLSI); type: cell-based; settings: Yeast Nitrogen Base broth, 24 h 35 °C, by CO-ADD
Procedure: as §5

[10] = tested on: C. albicans ATCC 24433; experiment: CFU assay of antimicrobial activity; type: cell-based, Candida albicans; settings: 10 mM NaP
Procedure: Bacteria were cultivated in either brain heart infusion medium (BHI), lysogeny broth (LB) or tryptic soy broth (TSB)[88]. If not otherwise stated, bacteria were incubated under shaking conditions (37 °C at 170 rpm) or as indicated on the ATCC- or DSM-data sheets. Candida albicans was cultured for 3 days on Yeast Extract-Peptone Dextrose (YPD) agar at 30 °C and yeast suspensions at appropriate density were treated with CIDAMPs as indicated.
as §3, §4

[11] = tested on: Proteus mirabilis ATCC 21100; settings: CFU assay, 10 mM NaP, pH 6.0, 0.25% glucose
[12] = tested on: Streptococcus pneumoniae ATCC 33400; experiment: CFU assay of antimicrobial activity; type: cell-based; settings: 10 mM NaP, pH 6.5, 0.25% glucose
Procedure: as §3, with “[…];” for “10 mM Na-P buffer pH 5,5/ 1% (w/v) TSB;”
as §4

[13] = tested on: Streptococcus pyogenes ATCC 12344; experiment: CFU assay of antimicrobial activity; type: cell-based; settings: 10 mM NaP, pH 6.0, 0.25% glucose
Procedure: as §3, with “[…];” for “10 mM Na-P buffer pH 5,5/ 1% (w/v) TSB;”
as §4

[14] = tested on: Acinetobacter baumannii ATCC 19606; settings: CFU assay, 10 mM NaP, pH 6.0, 0.25% glucose
[15] = tested on: P. aeruginosa ATCC 10145; settings: CFU assay
[16] = tested on: Enterococcus faecium DSM 2146; settings: CFU assay, 10 mM NaP, pH 5.5, 0.25% glucose
[17] = tested on: E. coli ATCC 25922; experiment: CO-ADD MIC, broth microdilution (CLSI); type: cell-based, Escherichia coli; settings: Mueller–Hinton broth, 5 × 10^5 CFU/mL, 18 h 37 °C, by CO-ADD
Description: as §1, §2

[18] = biological target: T1, enterokinase EKMax (Bos taurus, UniProt P98072); experiment: Protease sensitivity testing of HRNR; type: in vitro ADME; settings: 10 µg, 18 h 37 °C, 0,1 U to 0,0001 U, SDS-PAGE and HRNR Western blot, n = 3
T1 construct: purchased Invitrogen
Description: (§6) All data shown are representatives (n = 3).

[19] = biological target: thermolysin (Bacillus thermoproteolyticus, UniProt P00800); settings: 10 µg, 18 h 37 °C, 10 ng to 10 pg, SDS-PAGE and HRNR Western blot, n = 3
[20] = tested on: trypsin; type: in vitro ADME; settings: for digestion by trypsin: 500 ng, 0.7 nM protease, pH 7.5, 15 h, Western blot
Description: as §6
(§7) Lane 16 (“without protease”)
(§8) Table 1) have been directly applied. Note the presence of multiple bands, which originate
(§9) from oligomeric HRNR-complexes12. Data shown are representatives (n=3).

[21] = tested on: T2, α-chymotrypsin; experiment: Protease sensitivity testing of HRNR; type: in vitro ADME, human; settings: 10 µg, 18 h 37 °C, 1 ng to 1 pg, SDS-PAGE and HRNR Western blot, n = 3
T2 construct: purchased Sigma
Description: as §6

[22] = biological target: T3, Lys-C (Lysobacter enzymogenes, UniProt Q7M135); experiment: Protease sensitivity testing of HRNR; type: in vitro ADME; settings: n = 3
T3 construct: purchased Roche
Description: as §6
Thereafter samples were subjected to a
Data shown are representatives
as §7, §8, §9

[23] = tested on: collagenase; settings: 1 µg, 1 h 37 °C, SDS-PAGE, silver staining; at higher concentrations, n = 3
[24] = biological target: T4, KLK7 (Homo sapiens, UniProt P49862); experiment: Protease sensitivity testing of HRNR; type: in vitro ADME; settings: 500 ng, 0.7 nM protease, pH 7.5, 15 h, Western blot, n = 3
T4 construct: purchased R&D
Procedure: as §7
(§10) Table 1) have been directly applied. Note the presence of multiple bands, which originate from oligomeric HRNR-complexes12. Data shown are representatives (n=3).
(§11) Supplementary Fi gur e 14 :
(§12) For SDS-PAGE analyses 250 ng of […]
(§13) manner, however in the absence of a protease. […]
(§14) have been directly applied. Note a marked decrease of PAD1-deiminated rHRNR2591-2684 electromobility (lane 16) relative to rHRNR2591-2684 (lane 17). D ata shown are represent a tives

[25] = biological target: T5, KLK1 (Homo sapiens, UniProt P06870); experiment: Protease sensitivity testing of HRNR; type: in vitro ADME; settings: 500 ng, 0.7 nM protease, pH 7.5, 15 h, Western blot, n = 3
T5 construct: purchased R&D
Procedure: as §7, §10, §11, §12, §13, §14

[26] = 10 mM NaP, pH 5.5, 0.25% glucose

T3 sequence (Q7M135 whole entry): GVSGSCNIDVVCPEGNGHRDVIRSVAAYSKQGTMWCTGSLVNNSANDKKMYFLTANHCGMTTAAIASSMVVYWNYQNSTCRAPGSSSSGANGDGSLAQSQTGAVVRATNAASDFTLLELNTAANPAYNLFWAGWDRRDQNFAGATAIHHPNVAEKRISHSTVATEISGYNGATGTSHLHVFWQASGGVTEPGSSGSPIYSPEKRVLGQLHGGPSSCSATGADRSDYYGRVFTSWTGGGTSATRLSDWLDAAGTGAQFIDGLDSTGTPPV
T4 sequence (P49862 30-253): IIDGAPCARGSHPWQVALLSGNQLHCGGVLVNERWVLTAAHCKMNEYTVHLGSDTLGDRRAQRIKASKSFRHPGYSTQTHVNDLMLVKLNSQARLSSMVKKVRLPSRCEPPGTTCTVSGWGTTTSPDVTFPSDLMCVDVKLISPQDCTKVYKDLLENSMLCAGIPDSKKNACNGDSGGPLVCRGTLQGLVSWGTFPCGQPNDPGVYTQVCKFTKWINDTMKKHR
T5 sequence (P06870 25-262): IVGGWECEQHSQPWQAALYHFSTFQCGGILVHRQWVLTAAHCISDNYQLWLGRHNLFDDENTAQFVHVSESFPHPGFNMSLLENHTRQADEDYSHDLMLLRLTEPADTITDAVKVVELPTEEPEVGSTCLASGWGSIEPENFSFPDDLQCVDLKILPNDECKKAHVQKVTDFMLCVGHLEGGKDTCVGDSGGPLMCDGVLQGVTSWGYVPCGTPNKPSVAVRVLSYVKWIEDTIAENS
Sequence of thermolysin (P00800 233-548): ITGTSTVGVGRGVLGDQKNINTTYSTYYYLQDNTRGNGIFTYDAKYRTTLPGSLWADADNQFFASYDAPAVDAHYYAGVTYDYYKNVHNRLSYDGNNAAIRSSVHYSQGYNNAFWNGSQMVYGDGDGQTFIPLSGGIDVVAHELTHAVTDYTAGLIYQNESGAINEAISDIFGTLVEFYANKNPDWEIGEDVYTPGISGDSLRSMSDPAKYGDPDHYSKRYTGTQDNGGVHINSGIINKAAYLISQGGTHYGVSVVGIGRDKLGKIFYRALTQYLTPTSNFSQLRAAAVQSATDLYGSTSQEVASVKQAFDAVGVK
T2 sequence (P17538 34-164 limits assumed, other chains not shown): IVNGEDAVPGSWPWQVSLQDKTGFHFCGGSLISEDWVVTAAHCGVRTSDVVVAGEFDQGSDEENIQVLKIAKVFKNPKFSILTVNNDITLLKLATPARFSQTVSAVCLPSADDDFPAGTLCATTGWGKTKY
T2 sequence (P17538 167-263 limits assumed, other chains not shown): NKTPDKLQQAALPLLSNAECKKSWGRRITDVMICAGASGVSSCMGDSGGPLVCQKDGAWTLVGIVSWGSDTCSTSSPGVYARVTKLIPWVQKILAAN
T1 sequence (P98072 801-1035 limits assumed): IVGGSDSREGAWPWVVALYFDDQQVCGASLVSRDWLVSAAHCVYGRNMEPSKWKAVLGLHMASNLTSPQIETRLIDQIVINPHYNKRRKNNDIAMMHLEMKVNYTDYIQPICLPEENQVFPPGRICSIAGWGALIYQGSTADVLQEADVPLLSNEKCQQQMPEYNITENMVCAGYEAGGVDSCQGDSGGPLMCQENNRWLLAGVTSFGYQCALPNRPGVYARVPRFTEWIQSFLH

For GRHGSGLGHSSSHGQHGSGSGR [HR 1-18], the LD90 [1] was greater than 300 µg/mL, the LD90 [2] was greater than 300 µg/mL and the “Minimal inhibitory concentration (MIC)” value [3] was greater than 32 µg/mL. The “Minimal inhibitory concentration (MIC)” value [4] was greater than 32 µg/mL, the “Minimal inhibitory concentration (MIC)” value [5] was greater than 32 µg/mL and the “Minimal inhibitory concentration (MIC)” value [6] was greater than 32 µg/mL. For the same molecule, the LD90 ([7]; pH 5.5, 1% TSB) was greater than 300 µg/mL, the “Minimal inhibitory concentration (MIC)” value [8] was greater than 32 µg/mL and the “Minimal inhibitory concentration (MIC)” value [9] was greater than 32 µg/mL. It also gave an LD90 ([10]; pH 5.5, 0.25% glucose) of 18.8 µg/mL, an LD90 ([10]; pH 5.5, 1% TSB) of 150 µg/mL and an LD90 [11] greater than 300 µg/mL. The LD90 [12] was greater than 300 µg/mL, the LD90 [13] was greater than 300 µg/mL and the LD90 [14] was 1.18 µg/mL. For the same molecule, the LD90 [15, 26] was 0.038 µg/mL, the LD90 ([15]; 10 mM NaP, pH 5.5, 1% TSB) was 0.15 µg/mL and the LD90 ([15]; 10 mM NaP/0.25% glucose/pH 5.5, 1% TSB) was 1.18 µg/mL. For the same molecule, the LD90 ([15]; 10 mM NaP/0.25% glucose/pH 5.5, 3% TSB) was 37.5 µg/mL, the LD90 ([15]; 10 mM NaP/0.25% glucose/pH 5.5, 10% TSB) was greater than 300 µg/mL and the LD90 [16] was 150 µg/mL. The “Minimal inhibitory concentration (MIC)” value [17] was greater than 32 µg/mL.

B1: rHRNR2576–2707: recombinant HRNR fragment (protein, UniProt Q86YZ3 2576-2707, looked up, fragment)
chain: GFGHHESSSGQSSSYSQHGSGSGHSSGYGQHGSRSGQSSRGERHGSSSGSSSHYGQHGSGSRQSSGHGRQGSGSGQSPSRGRHGSGLGHSSSHGQHGSGSGRSSSRGPYESRLGHSSVFGQHESGSGHSSAY
For B1, the “sensitivity towards enterokinase EKMax” value [18] was “highly sensitive”, the sensitivity towards thermolysin [19] was “highly sensitive” and the sensitivity towards trypsin ([20]; 10 µg, 18 h 37 °C, 100 pg to 0,1 pg trypsin (not modified), SDS-PAGE and HRNR Western blot, n = 3) was “highly sensitive”. The “amount of unmodified trypsin that digests” value ([20]; 10 µg, 18 h 37 °C, SDS-PAGE and HRNR Western blot) was 1 pg, the LD90 ([7]; pH 5.5, 0.25% glucose) was 0.55 µg/mL and the LD100 ([7]; pH 5.5, 0.25% glucose) was greater than 100 µg/mL. The LD90 ([10]; pH 5.5, 0.25% glucose) was 0.55 µg/mL, the LD100 ([10]; pH 5.5, 0.25% glucose) was greater than 140 µg/mL and the “sensitivity towards α-chymotrypsin” value [21] was “highly sensitive”. For the same molecule, the “sensitivity towards Lys-C” value ([22]; 10 µg, 18 h 37 °C, 10 ng to 10 pg, SDS-PAGE and HRNR Western blot) was “highly sensitive”, the LD90 [15, 26] was 0.035 µg/mL and the LD100 [15, 26] was 0.275 µg/mL.

B2: rHRNR2591–2684: recombinant HRNR fragment (protein, UniProt Q86YZ3 2591-2684, looked up, fragment)
chain: SQHGSGSGHSSGYGQHGSRSGQSSRGERHGSSSGSSSHYGQHGSGSRQSSGHGRQGSGSGQSPSRGRHGSGLGHSSSHGQHGSGSGRSSSRGPY
For B2, the digestion by trypsin ([20]; n = 3) was “digest”, the LD90 ([7]; pH 5.5, 0.25% glucose) was 0.2 µg/mL and the LD100 ([7]; pH 5.5, 0.25% glucose) was greater than 100 µg/mL. The LD90 ([10]; pH 5.5, 0.25% glucose) was 0.39 µg/mL, the LD100 ([10]; pH 5.5, 0.25% glucose) was 6.25 µg/mL and the “digestion by Lys C” value ([22]; 1 µg, 1 h 37 °C, SDS-PAGE, silver staining, at higher concentrations) was “sensitivity”. The LD90 [15, 26] was 0.025 µg/mL, the LD100 [15, 26] was 0.1 µg/mL and the digestion by collagenase [23] was “sensitivity”.

B3: PAD1-deiminated rHRNR2591-2684: Protein Arginine Deiminase 1 (PAD1)-deiminated rHRNR2591–2684, Arg citrullinated (protein, UniProt Q86YZ3 2591-2684, looked up, fragment)
chain: B2 chain
modifications: PAD1-deiminated, arginines citrullinated
notes: Protein Arginine Deiminase 1 (PAD1)-deiminated rHRNR2591–2684, Arg citrullinated
With B3 the digestion by trypsin ([20]; n = 3) was “digest”, the “digestion by LysC” value ([22]; 500 ng, 0.7 nM protease, pH 7.5, 15 h, Western blot) was “digest” and the “digestion by KLK7” value [24] was “digest”. The “digestion by KLK1” value [25] was “digest”.
